Measurements as given in US20220289850 (published 2022).
Substitutions are numbered along the chain they refer to. “And” between values parts separate entries of the source, which are not always exact repeats. Equal values may be shown once.

Biological target: T1, mouse integrin avb8 (mouse)
T1 chain 1: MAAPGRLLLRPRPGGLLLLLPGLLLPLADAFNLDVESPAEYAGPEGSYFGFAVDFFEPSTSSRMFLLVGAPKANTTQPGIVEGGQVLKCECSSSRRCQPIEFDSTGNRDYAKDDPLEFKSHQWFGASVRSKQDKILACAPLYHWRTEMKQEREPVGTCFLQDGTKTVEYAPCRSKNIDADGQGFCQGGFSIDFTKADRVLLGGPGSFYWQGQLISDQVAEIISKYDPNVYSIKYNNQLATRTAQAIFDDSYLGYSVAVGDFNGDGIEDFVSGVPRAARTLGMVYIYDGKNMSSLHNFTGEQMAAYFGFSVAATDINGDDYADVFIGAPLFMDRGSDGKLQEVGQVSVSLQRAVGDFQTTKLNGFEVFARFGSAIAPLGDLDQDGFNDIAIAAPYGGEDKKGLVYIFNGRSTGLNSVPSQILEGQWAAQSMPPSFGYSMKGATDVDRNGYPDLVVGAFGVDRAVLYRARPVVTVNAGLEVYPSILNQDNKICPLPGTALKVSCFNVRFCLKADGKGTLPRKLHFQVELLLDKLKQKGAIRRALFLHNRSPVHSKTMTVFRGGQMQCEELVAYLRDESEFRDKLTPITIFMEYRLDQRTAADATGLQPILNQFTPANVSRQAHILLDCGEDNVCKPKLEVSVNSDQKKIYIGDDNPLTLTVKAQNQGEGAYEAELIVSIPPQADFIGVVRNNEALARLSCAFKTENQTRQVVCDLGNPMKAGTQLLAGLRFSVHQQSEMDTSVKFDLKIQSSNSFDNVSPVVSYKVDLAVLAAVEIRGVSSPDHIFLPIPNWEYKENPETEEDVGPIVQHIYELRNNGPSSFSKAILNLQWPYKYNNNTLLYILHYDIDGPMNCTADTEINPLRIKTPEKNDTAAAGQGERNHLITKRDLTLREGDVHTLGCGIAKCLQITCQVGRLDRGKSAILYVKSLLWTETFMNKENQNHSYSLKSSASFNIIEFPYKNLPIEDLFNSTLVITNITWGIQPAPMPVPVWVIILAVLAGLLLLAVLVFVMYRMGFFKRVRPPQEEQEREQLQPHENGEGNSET
T1 chain 2: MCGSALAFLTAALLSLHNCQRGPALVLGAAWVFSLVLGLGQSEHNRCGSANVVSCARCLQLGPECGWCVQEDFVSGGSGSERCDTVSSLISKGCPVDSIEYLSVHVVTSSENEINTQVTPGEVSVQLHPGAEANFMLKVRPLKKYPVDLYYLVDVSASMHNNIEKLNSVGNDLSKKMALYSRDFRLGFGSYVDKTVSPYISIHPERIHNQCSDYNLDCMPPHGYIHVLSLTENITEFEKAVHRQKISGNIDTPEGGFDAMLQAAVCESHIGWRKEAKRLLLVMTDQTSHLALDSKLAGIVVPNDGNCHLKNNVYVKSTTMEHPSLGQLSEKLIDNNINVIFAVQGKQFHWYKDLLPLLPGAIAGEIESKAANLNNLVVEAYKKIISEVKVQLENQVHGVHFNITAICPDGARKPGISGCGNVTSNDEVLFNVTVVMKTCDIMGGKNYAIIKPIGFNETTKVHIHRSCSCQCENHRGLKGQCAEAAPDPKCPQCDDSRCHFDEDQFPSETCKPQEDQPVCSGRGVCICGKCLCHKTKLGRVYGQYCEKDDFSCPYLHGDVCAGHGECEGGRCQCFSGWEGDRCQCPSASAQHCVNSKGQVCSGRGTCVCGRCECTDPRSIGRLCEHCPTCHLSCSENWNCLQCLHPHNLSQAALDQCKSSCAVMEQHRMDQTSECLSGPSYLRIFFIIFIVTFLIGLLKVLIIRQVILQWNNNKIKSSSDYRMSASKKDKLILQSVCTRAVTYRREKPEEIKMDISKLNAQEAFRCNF
Assay: SPR 25C

B1: Mouse hybridoma ADWA-11 Fab (antibody, V domains shown)
VH: EVQLQQSGAELVRPGAFVKLSCKASGFNIKDYYMNWVLQRPEQGLEWIGWIDPDNGNTIYDPKFQGKASITADTSSNTAYLQLSSLTSEDTAVYYCARRLLMDYWGQGTSVTVSS
VL: DIVMTQAAPSVPVTPGESVSISCRSTKSLLHFNGNTYLFWFLQRPGQSPQRLIYYMSNLASGVPDRFSGRGSGTDFTLRISRVEAEDVGVYYCMQSLEYPFTFGTGTKLEIK
Kd: 0.489 nM

B2: ADWA11 VH05/VK01 (VH05-2_VK01) Fab (antibody, V domains shown)
VH: EVQLVESGGGLVQPGGSLRLSCAASGFNIKDYYMNWVRQAPGKGLEWVGWIDPDNGNTIYDPKFQGRFTISADTSKNSAYLQMNSLRAEDTAVYYCARRLLMDYWGQGTLVTVSS
VL: DIQMTQSPSSLSASVGDRVTITCRSTKSLLHFNGNTYLFWYQQKPGKAPKRLIYYMSNLASGVPSRFSGSGSGTDFTLTISSLQPEDFATYYCMQSLEYPFTFGQGTKVEIK
Kd: < 0.1 nM and 0.137 nM

B3: ADWA11 2.4 Fab (antibody, V domains shown)
VH: B2 VH with N55Q, D61E
VL: B2 VL with L30S, N58S, M94Q, Q105G
Kd: < 0.2 nM
